Laboratory results from patent publication US20250262210A1 (TRUSTEES OF COLUMBIA UNIVERSITY IN THE CITY OF NEW YORK, published 2025).

What was measured:
Experiment in all cases: IP/MS, LZTR1 wild type-FLAG, U87
ALPK2 = ALPK2 (human, UniProt Q86TB3 1-2170)
Procedure, shortened: (§1)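 Extracted peptides in 3% acetonitrile/0.1% formic acid ran on a 50 cm C18 column into an Orbitrap Fusion, with MaxQuant identification and spectral counting.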

TTC27 = TTC27 (human, UniProt Q6P3X3 1-843)
Procedure, shortened: as §1

SEC24D = biological target: T1, SEC24D (human, UniProt O94855 1-1032, limits assumed)
T1 sequence (looked up): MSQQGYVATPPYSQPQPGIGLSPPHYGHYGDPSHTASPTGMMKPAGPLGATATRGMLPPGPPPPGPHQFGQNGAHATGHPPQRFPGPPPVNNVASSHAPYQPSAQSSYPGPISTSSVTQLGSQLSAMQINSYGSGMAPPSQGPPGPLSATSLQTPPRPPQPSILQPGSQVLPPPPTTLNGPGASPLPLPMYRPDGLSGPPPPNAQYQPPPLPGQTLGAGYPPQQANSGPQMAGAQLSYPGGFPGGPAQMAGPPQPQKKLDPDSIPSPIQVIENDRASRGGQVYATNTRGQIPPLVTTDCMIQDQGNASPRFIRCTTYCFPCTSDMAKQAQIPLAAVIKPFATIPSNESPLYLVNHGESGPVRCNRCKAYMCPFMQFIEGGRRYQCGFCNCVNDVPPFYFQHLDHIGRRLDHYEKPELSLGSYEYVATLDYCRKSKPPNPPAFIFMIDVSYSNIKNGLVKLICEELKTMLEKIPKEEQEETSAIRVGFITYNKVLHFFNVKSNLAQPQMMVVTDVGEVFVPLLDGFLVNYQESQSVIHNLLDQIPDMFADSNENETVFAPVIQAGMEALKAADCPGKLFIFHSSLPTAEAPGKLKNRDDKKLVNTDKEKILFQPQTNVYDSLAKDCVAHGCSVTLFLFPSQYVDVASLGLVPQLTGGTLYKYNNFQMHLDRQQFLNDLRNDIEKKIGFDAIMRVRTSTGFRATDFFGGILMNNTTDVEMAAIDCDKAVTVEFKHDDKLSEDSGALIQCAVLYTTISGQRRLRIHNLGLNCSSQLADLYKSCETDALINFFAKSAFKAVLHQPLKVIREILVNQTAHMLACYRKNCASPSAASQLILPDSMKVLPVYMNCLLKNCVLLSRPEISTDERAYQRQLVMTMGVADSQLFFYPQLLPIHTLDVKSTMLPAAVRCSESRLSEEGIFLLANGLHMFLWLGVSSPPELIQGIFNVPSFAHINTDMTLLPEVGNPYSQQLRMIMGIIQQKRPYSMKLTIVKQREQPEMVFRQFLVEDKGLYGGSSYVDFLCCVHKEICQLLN
Procedure, shortened: as §1

TRIO = TRIO (human, UniProt O75962 1-3097, limits assumed)
Procedure, shortened: as §1

NCAPG2 = biological target: T2, NCAPG2 (human, UniProt Q86XI2 1-1143, limits assumed)
T2 sequence (looked up): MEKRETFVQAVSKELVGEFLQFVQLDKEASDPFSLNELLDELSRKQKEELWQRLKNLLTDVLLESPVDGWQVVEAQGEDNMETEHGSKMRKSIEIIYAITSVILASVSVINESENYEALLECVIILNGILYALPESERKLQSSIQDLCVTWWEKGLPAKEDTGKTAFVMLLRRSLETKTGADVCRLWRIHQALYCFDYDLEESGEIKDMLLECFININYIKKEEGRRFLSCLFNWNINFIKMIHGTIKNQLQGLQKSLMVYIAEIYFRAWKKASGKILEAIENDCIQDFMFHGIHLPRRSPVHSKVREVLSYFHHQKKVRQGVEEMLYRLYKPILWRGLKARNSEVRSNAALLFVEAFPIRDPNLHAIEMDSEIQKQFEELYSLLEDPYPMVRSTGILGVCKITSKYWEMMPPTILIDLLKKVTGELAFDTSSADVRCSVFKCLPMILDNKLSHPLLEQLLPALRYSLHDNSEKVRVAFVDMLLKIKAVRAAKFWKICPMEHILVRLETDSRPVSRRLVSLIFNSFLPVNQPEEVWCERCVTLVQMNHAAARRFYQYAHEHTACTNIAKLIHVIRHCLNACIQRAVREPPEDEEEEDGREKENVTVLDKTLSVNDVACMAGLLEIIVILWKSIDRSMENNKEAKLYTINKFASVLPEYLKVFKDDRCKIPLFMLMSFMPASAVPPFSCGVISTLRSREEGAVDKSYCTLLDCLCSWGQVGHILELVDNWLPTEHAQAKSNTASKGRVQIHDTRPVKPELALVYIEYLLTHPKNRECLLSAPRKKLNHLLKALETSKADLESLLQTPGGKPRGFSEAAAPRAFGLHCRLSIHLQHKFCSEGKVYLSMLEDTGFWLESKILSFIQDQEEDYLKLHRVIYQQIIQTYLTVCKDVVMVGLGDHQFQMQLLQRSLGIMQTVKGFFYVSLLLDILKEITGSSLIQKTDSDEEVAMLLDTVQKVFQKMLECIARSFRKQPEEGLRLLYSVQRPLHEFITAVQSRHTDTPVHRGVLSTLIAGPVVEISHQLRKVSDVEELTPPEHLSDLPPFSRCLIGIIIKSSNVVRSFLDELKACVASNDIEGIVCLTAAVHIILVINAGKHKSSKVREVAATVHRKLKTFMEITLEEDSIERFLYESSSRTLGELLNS
Procedure, shortened: as §1

Measured: binding result

Sequence of ALPK2 (Q86TB3 whole entry, the tested form may be a part): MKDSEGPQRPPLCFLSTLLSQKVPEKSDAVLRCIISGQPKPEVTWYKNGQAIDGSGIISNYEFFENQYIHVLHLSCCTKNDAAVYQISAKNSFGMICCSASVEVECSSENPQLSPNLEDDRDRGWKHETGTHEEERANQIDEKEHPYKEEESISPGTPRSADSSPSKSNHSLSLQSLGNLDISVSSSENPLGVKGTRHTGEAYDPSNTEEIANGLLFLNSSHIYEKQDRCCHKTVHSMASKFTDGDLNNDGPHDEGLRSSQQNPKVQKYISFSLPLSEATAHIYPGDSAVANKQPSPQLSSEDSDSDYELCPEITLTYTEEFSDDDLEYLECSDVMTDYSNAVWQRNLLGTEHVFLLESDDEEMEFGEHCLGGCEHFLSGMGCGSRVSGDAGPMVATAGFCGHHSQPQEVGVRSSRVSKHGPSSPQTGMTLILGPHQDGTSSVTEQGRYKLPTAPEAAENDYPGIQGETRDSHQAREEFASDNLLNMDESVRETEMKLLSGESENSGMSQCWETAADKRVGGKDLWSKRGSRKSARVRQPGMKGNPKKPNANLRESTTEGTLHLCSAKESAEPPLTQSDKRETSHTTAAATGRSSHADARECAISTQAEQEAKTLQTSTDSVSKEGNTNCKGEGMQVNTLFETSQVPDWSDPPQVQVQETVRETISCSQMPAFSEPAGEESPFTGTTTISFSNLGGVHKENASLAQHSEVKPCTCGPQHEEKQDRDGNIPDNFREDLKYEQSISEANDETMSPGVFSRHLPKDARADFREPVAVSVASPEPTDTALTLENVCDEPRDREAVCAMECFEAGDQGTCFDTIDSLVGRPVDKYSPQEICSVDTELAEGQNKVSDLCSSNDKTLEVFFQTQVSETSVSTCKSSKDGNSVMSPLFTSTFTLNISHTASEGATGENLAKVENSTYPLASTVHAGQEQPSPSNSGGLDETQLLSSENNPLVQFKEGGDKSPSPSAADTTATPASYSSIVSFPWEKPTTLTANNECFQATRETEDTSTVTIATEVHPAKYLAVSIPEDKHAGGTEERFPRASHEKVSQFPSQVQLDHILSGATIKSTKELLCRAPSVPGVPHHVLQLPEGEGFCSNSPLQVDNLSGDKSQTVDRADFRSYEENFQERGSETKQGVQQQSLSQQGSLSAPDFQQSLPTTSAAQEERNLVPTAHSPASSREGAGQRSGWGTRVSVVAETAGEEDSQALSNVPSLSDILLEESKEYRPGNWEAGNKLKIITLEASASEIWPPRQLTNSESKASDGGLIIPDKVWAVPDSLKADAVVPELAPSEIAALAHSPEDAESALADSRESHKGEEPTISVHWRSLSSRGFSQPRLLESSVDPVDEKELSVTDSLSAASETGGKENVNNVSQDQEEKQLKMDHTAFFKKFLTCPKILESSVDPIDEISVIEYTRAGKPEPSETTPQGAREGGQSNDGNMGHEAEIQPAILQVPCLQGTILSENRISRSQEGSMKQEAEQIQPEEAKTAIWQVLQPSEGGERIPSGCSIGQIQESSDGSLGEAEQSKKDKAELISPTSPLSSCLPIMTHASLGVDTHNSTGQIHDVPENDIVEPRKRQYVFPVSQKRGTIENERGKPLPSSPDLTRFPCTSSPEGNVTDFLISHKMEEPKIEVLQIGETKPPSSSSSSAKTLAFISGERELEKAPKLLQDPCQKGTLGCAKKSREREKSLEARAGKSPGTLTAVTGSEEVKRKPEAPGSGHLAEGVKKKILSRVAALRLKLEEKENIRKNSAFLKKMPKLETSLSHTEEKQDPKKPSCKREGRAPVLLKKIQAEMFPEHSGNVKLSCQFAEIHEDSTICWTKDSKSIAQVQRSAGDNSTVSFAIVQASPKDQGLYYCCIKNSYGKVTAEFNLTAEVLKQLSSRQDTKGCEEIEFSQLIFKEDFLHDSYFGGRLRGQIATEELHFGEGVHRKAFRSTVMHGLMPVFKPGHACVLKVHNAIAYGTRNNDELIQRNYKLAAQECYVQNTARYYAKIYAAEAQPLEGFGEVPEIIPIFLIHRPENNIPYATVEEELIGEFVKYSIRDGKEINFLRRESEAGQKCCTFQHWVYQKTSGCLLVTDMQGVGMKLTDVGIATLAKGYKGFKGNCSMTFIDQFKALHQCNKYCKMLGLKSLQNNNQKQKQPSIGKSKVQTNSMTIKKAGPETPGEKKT

B1: LZTR1-FLAG (other, human, UniProt Q8N653 1-840, looked up)
chain: MAGPGSTGGQIGAAALAGGARSKVAPSVDFDHSCSDSVEYLTLNFGPFETVHRWRRLPPCDEFVGARRSKHTVVAYKDAIYVFGGDNGKTMLNDLLRFDVKDCSWCRAFTTGTPPAPRYHHSAVVYGSSMFVFGGYTGDIYSNSNLKNKNDLFEYKFATGQWTEWKIEGRLPVARSAHGATVYSDKLWIFAGYDGNARLNDMWTIGLQDRELTCWEEVAQSGEIPPSCCNFPVAVCRDKMFVFSGQSGAKITNNLFQFEFKDKTWTRIPTEHLLRGSPPPPQRRYGHTMVAFDRHLYVFGGAADNTLPNELHCYDVDFQTWEVVQPSSDSEVGGAEVPERACASEEVPTLTYEERVGFKKSRDVFGLDFGTTSAKQPTQPASELPSGRLFHAAAVISDAMYIFGGTVDNNIRSGEMYRFQFSCYPKCTLHEDYGRLWESRQFCDVEFVLGEKEECVQGHVAIVTARSRWLRRKITQARERLAQKLEQEAAPVPREAPGVAAGGARPPLLHVAIREAEARPFEVLMQFLYTDKIKYPRKGHVEDVLLIMDVYKLALSFQLCRLEQLCRQYIEASVDLQNVLVVCESAARLQLSQLKEHCLNFVVKESHFNQVIMMKEFERLSSPLIVEIVRRKQQPPPRTPLDQPVDIGTSLIQDMKAYLEGAGAEFCDITLLLDGHPRPAHKAILAARSSYFEAMFRSFMPEDGQVNISIGEMVPSRQAFESMLRYIYYGEVNMPPEDSLYLFAAPYYYGFYNNRLQAYCKQNLEMNVTVQNVLQILEAADKTQALDMKRHCLHIIVHQFTKVSKLPTLRSLSQQLLLDIIDSLASHISDKQCAELGADI
notes: Expressed in HEK 293T, HeLa or U87 cells; used as cell lysate; also called LZTR1 wild type-FLAG; LZTR1 WT; not shown: FLAG tag at the C-terminus
binds: ALPK2 | TTC27 | SEC24D | TRIO | NCAPG2
